This is an account of results in patent publication US20210015858A1 (I MAB BIOPHARMA US, published 2021).

One assay concerns the target T1, His-tagged cyno-TIGIT (cyno, UniProt A0A7N9I9V4 89-209).
T1 construct: also called cyno TIGIT protein; not shown: His tag
Put plainly: ELISA.

Assay [1] deals with T2, human TIGIT expressed on cell surface (human, UniProt Q495A1 22-244).
T2 sequence (looked up): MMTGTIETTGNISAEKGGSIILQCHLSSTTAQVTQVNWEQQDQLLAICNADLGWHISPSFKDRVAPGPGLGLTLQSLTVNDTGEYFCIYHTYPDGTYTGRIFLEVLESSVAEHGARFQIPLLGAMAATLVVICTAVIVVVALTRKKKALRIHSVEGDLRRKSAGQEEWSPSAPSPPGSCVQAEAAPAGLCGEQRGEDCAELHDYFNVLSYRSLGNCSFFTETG
In words: cell-based or functional assay.

Assay [2] concerns the target T3, recombinant His-tagged human TIGIT-ECD protein (human, UniProt Q495A1 22-141).
T3 construct: extracellular domain; The ELISA text only says His-tagged human TIGIT; also called His-tagged TIGIT; human TIGIT protein; not shown: His tag
T3 sequence (looked up): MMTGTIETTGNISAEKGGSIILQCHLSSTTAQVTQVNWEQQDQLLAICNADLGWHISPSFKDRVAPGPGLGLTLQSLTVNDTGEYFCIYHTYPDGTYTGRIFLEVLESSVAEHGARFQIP
Put plainly: SPR (Biacore T200), antibody captured, His-tagged TIGIT-ECD injected. As to the method: The binding of the antibodies to recombinant His-tagged human TIGIT-ECD protein was examined by Biacore T200 using a capture method. The anti-TIGIT antibodies were captured using anti-human Fc antibody or Protein A which were coated on chip. The serial concentrations of his-tagged human TIGIT-ECD protein (0-8 nM) were injected over capture antibodies at the flow rate of 30 μl/min. The dissociation phases were 600 s or 1200 s.
On the technique in general: SPR reads the build-up and loss of mass on a sensor chip optically.

In assay [3] the target is T3, recombinant His-tagged human TIGIT-ECD …. The description is as above. As to the method: The anti-TIGIT antibodies were captured using anti-human Fc antibody or Protein A which were coated on the chip. Serial concentrations of His-tagged human TIGIT-ECD protein (0-8 nM) were injected over capture antibodies at the flow rate of 30 μl/min. The dissociation phases were 600 s or 1200 s.
The source holds these as a separate data set.

Assay [4] has the same target. Put plainly: SPR affinity ranking (Biacore 8K or T200).
Assay [5] has the same target. In words: SPR affinity ranking (Biacore T200).

T1 sequence (A0A7N9I9V4 entry or part of it): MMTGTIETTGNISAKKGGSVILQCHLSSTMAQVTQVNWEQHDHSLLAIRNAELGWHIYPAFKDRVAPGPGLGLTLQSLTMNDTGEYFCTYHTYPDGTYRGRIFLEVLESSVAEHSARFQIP

B1: 221F11 (antibody, human IgG1, V domains shown)
VH: EIQLQQTGPELVKPGASVNISCKASGYSFTDYIMIWVKQSHGKSLEWIGNIHPYFGNSHYNLKFKGKATLTVDKSSTTAYMQLNSLTSEDSAVYYCARRGITSAHFDYWGQGTTLTVSS
VL: DIVLTQSPASLAVSLGQRATISCRASKSVSTSGYSYMHWYQQKPGQPPKLLIYRASNLESGVPARFSGSGSGTDFTLNIHPVEEEDAATYYCQHSGDLPWTFGGGTKLEIK
notes: Mouse hybridoma clone
Turning to B1, the binding result with His-tagged cyno-TIGIT was “no binding”.

B2: 350D10 (antibody, human IgG1, V domains shown)
VH: EVKLVESGGALVQPGGSLKLSCAASGFTFSDYYMYWVRQTPEKRLEWVASITKGGGSTYYPDTLKGRFTISRDNAKNTLYLQMSRLKSEDTDMYYCARQSSYDFVMDYWGQGTSVTVSS
VL: DIVMTQSHKFMSTSVGDRVTITCKASQDVDTAVAWYQQKPGQSPKLLIYWASARHTGVPDRFTGSGSGTDFTLTISNVQSEDLADYFCQQYSNYPLTFGVGTKLELK
notes: Mouse hybridoma clone; also called 350D10-chimeric
Broadly, the Kd is the equilibrium constant for the complex coming apart. By koff is commonly meant the first-order rate constant of dissociation. As a reminder, the kon is the rate constant with which the complex forms. As for B2, the “maximum ADCC activity (LDH release, NK92-CD16a effector cells on Jurkat-TIGIT target cells)” value (shortened to “maximum ADCC activity”) in assay [1] turned out to be 50%. Besides, in assay [2], the Kd is 82.2 pM, the koff came out at 0.000154 s⁻¹ and the kon was determined as 1.87e+06 M⁻¹ s⁻¹. For the same molecule, in assay [3], the Kd turned out to be 82.2 pM, the koff was determined as 0.000154 s⁻¹ and the kon was 1.87e+06 M⁻¹ s⁻¹. In assay [4], the dissociation constant (Kd) came to 71.6 pM, the koff is 0.000189 s⁻¹ and the kon is 2.64e+06 M⁻¹ s⁻¹.

B3: 90D9 (antibody, V domains shown)
VH: EVQLQQSGPELVKPGASVKISCKTSGYTFTENTMHWVKQSHGKSLEWIGGINPNQGGNRNNQKFKGKATLTVDKSSSTAYMELRSLTSEDSAVYYCARSGLRDYAMDYWGQGTSVTVSS
VL: DIVMTQSHKFMSTSVGDRVSITCKASQHVSTAVVWYQQKPGQSPKLLIYSPSYRYTGVPDRFTGSGSGTDFTFTISSVQAEDLAVYYCQQHYSTPWTFGGGTKLEIK
notes: Mouse hybridoma clone; also called 90D9-chimeric
With B3, in assay [1], the “maximum ADCC activity” value was 50%. Further, in assay [2], the Kd stood at 252 pM, the koff turned out to be 0.000156 s⁻¹ and the kon is 619000 M⁻¹ s⁻¹. In assay [3], the Kd turned out to be 374 pM, the koff stood at 0.000167 s⁻¹ and the kon was 446000 M⁻¹ s⁻¹. Besides, in assay [4], the Kd is 296 pM, the koff was found to be 3.25e-05 s⁻¹ and the kon was 110000 M⁻¹ s⁻¹.

B4: 101E1 (antibody, human IgG1, V domains shown)
VH: DVQLQESGPGLVKPSQSLSLTCTVTGYSITSDYAWNWIRQFPGNKLEWMGYISYSGNTRYNPSLKSRISITRDTSKNQFFLQFNSVTTEDTATYYCSRKYYGSWFPYWGQGTLVTVSA
VL: DIVMTQSHKFMSTSVGDRVSITCKASQDVFTAVAWYQQKPGQSPKLLIYSASYRYTGVPDRFTGSGSGTDFTFTISSVQAEDLAVYYCQQHYSTPWTFGGGTRLEIK
notes: Mouse hybridoma clone; also called 101E1-chimeric
Turning to B4, the “maximum ADCC activity” value in assay [1] was found to be 50%. Moreover, the “apparent Kd (pooled screen)” value is 362 pM in assay [2], 362 pM in assay [3] and 487 pM in assay [4]. The “apparent koff (pooled screen)” value in assay [2] was 0.00105 s⁻¹; in assay [3], 0.00105 s⁻¹; in assay [4] it was 0.00114 s⁻¹. The “apparent kon (pooled screen)” value in assay [2] worked out at 2.9e+06 M⁻¹ s⁻¹; in assay [3] it was 2.9e+06 M⁻¹ s⁻¹; in assay [4], 2.34e+06 M⁻¹ s⁻¹. Moreover, in the assay with His-tagged cyno-TIGIT, the binding result is given as “no binding”.

B5: 116H8 (antibody, human IgG1, V domains shown)
VH: EFQLQQSGPELVKPGASVKISCRASGYSFTAYSMNWVQQTNGKSLEWIGVINPKFGTINYNQKFKGKATLTVDQSSSAAYIQLNSLTSEDSAVYFCARNGNFAWYFDVWGTGTTVTVSS
VL: DIQMTQSPASLSASVGETVTITCRASENIFSYLAWYQQKQGKSPQLLVYNAKTLPEGVPSRFSGSGSGTQFSLKINSLQSEDFGSYYCQHHYGVPWTFGGGTKLEIK
notes: Mouse hybridoma clone
B5: the binding result with His-tagged cyno-TIGIT is given as “no binding”.

B6: 131A12 (antibody, human IgG1, V domains shown)
VH: EFQLQQSGPELVKPGASVKISCRASGYSFTAYSMNWVQQTNGKSLEWIGVINPKFGTTNYNQKFRDKATLTVDHSSSAAYMQLNSLTSEDSAVYFCARNGNFAWYFDVWGTGTTVTVSS
VL: DIQMTQSPASLSASVGETVTITCRASENIFSYLAWYQQKQGKSPQLLAYNAETLAEGVPSRFSGSGSGTQFSLKISSLQSEDFGSYYCQHHFGVPWTFGGGTNLEIK
notes: Mouse hybridoma clone
For B6, in the assay with His-tagged cyno-TIGIT, the binding result is recorded as “no binding”.

B7: 167F7 (antibody, human IgG1, V domains shown)
VH: EFQLQQSGPELVKPGASVKISCRASGYSFTAYSMNWVQQTNGKSLEWIGVINPKFGTINYNQKFKDKATLTVDHSSSAAYMQLNSLTSEDSAVYFCARNGNFAWYFDVWGTGTTVTVSS
VL: DIQMTQSPASLSASVGETVTITCRASESIFSYLAWYQQKQGKSPQLLAYNAETLAEGVPSRFSGSGSGTQFSLKINSLQSEDFGIYYCQHHFGVPWTFGGGTKLEIK
notes: Mouse hybridoma clone
For the molecule B7, in assay [2], the Kd was determined as 24 pM, the koff was found to be 0.000107 s⁻¹ and the kon stood at 4.45e+06 M⁻¹ s⁻¹.

B8: 101E1HM-1 (antibody, V domains shown)
VH: QVQLQESGPGLVKPSQTLSLTCTVSGYSITDDYAWNWIRQPPGKGLEWMGYISYSGHTKYNPSLKSRVTISRDTSKNQFSLKLSSVTAADTAVYYCARKYYGGWFPRWGQGTLVTVSS
VL: DIQMTQSPSSLSASVGDRVTITCKASQDVFTAVAWYQQKPGKAPKLLIYSASYRPTGVPSRFSGSGSGTDFTFTISSLQPEDFATYYCQQSYSTPWTFGQGTRLEIK
Turning to B8, in assay [5], the Kd stood at 2150 pM, the koff is 0.00107 s⁻¹ and the kon amounted to 496000 M⁻¹ s⁻¹.

B9: 101E1HM-4 (antibody, V domains shown)
VH: QVQLQESGPGLVKPSQTLSLTCTVSGYSITDDYAWNWIRQPPGKGLEWMGYISYSGHTRYNPSLKSRVTISRDTSKNQFSLKLSSVTAADTAVYYCARKYYGSWFPDWGQGTLVTVSS
VL: DIQMTQSPSSLSASVGDRVTITCKASQDVFTAVAWYQQKPGKAPKLLIYSASYRMTGVPSRFSGSGSGTDFTFTISSLQPEDFATYYCQQSYSTPWTFGQGTRLEIK
As for B9, in assay [5], the equilibrium dissociation constant (Kd) is 3080 pM, the koff is 0.00439 s⁻¹ and the kon was determined as 1.43e+06 M⁻¹ s⁻¹.

B10: 101E1HM-2 (antibody, V domains shown)
VH: QVQLQESGPGLVKPSQTLSLTCTVSGYSITDDYAWNWIRQPPGKGLEWMGYISYSGNTMYNPSLKSRVTISRDTSKNQFSLKLSSVTAADTAVYYCARKYYGGWFPIWGQGTLVTVSS
VL: DIQMTQSPSSLSASVGDRVTITCKASQDVFTAVAWYQQKPGKAPKLLIYSASYRHTGVPSRFSGSGSGTDFTFTISSLQPEDFATYYCQQSYSTPWTFGQGTRLEIK
Turning to B10, in assay [5], the Kd was 1480 pM, the koff came out at 0.00191 s⁻¹ and the on-rate (kon) was found to be 1.29e+06 M⁻¹ s⁻¹.

B11: 101E1HM-5 (antibody, V domains shown)
VH: QVQLQESGPGLVKPSQTLSLTCTVSGYSITDDYAWNWIRQPPGKGLEWMGYISYSGITRYNPSLKSRVTISRDTSKNQFSLKLSSVTAADTAVYYCARKYYGGWFPQWGQGTLVTVSS
VL: DIQMTQSPSSLSASVGDRVTITCKASQDVFTAVAWYQQKPGKAPKLLIYSASYRDTGVPSRFSGSGSGTDFTFTISSLQPEDFATYYCQQSYSTPWTFGQGTRLEIK
As to B11, in assay [5], the Kd was found to be 1290 pM, the off-rate constant (koff) is 0.00209 s⁻¹ and the kon stood at 1.63e+06 M⁻¹ s⁻¹.

B12: 101E1HM-3 (antibody, V domains shown)
VH: QVQLQESGPGLVKPSQTLSLTCTVSGYSITDDYAWNWIRQPPGKGLEWMGYISYSGDTKYNPSLKSRVTISRDTSKNQFSLKLSSVTAADTAVYYCARKYYGGWFPVWGQGTLVTVSS
VL: DIQMTQSPSSLSASVGDRVTITCKASQDVFTAVAWYQQKPGKAPKLLIYSASNRNTGVPSRFSGSGSGTDFTFTISSLQPEDFATYYCQQQYSTPWTFGQGTRLEIK
For B12, in assay [5], the Kd was determined as 554 pM, the koff worked out at 0.000717 s⁻¹ and the kon came out at 1.29e+06 M⁻¹ s⁻¹.

B13: 143B6 (antibody, human IgG1, V domains shown)
VH: EVQLVESGGGLVMPGGSLKLSCAASGFTFSGFVMSWVRQTPEKRLEWVATINDAGTYTYYSDNLKGRFTISRDNAKNNLYLQMSHLKSEDAGMYYCARDGGLRAWFPYWGPGTLVTVSA
VL: DIQLTQSPASLSASVGETVTITCRASENIYSYLAWYQLKQGKSPQLLVFNTKTLAEGVPSRFSGSGSGTQFSLRIDSLQLEDFGSFYCQHHIGSPRTFGGGTTLEIR
notes: Mouse hybridoma clone
Turning to B13, in the assay with His-tagged cyno-TIGIT, the binding result is “no binding”.

B14: 222H4 (antibody, human IgG1, V domains shown)
VH: EVQLQQSGPELVKPGASVKISCKTSGYTFSDYTLHWVKQSHGKNLEWIGGFNPNNGGTNYNQKFKVKASLTIDKSSNTVYMELRSLSSEDSAVYYCARNWAFDYWGQGTTLTVSS
VL: DIVMTQSHKIMSTSLGDRVNITCKASQHVSTAVAWYQQRPGQSPRLLIYSASYRHTGVPDRFTGSGSGTDITFTISSVQTEDLAVYYCQQYYTTPWTFGGGTKLEIK
notes: Mouse hybridoma clone
As for B14, in assay [2], the Kd is 242 pM, the koff amounted to 0.000453 s⁻¹ and the kon amounted to 1.87e+06 M⁻¹ s⁻¹.
